This is an account of results in patent publication US20160130322A1.

In assay [1] the target is acylated ghrelin (AG) (mouse) (UniProt Q9EQX0). The experiment in a line: cell-based or functional assay.
Assay [2] has as its target unacylated ghrelin (UAG) (mouse) (UniProt Q9EQX0). The experiment in a line: cell-based or functional assay.

In the case of “GHSR/Fc (Nt-EC1-EC2 of mouse GHS-R1a fused with a mouse IgG constant region (Fc)) (Fc fusion)”, the levels of AG in circulation of mice expressing GHSR/Fc (plasma enzyme-linked immunoassay) in assay [1] was 1.41 pg/mL. The levels of total ghrelin (primarily UAG) in circulation of mice expressing GHSR/Fc (plasma radioimmunoassay) in assay [2] turned out to be 141 pg/mL.
